Laboratory results reported in IntAct's records for PubMed 16864798.

Biological target: plk1_human PLK1 (UniProt P53350)
Sequence (P53350 whole entry): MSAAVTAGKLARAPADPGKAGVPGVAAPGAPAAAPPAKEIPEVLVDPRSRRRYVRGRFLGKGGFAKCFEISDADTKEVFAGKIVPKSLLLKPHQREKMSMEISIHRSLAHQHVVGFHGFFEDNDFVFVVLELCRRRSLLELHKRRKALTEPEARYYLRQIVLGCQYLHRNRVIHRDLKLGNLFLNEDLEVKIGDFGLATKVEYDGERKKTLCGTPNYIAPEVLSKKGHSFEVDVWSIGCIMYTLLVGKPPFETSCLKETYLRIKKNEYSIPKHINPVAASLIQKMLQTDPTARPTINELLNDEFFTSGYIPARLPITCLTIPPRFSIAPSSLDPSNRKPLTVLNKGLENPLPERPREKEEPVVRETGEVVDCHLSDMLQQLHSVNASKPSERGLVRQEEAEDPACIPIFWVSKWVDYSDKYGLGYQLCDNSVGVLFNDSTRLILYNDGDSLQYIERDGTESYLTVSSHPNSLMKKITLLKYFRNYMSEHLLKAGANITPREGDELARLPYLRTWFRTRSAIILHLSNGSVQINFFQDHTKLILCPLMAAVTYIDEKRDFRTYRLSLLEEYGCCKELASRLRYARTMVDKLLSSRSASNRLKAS

effect of a mutation on the interaction: disrupting interaction strength
Substance: RecQ-like DNA helicase BLM (Homo sapiens), P54132 S144A;S304A;S1290A;S1296A
